{"source": "patent US11866760B2", "about": "“Microorganisms for the production of insect pheromones and related compounds” (Provivi, Inc., priority 2017, dated 2024)", "key": {"S. cerevisiae ΔOLE1": {"tested_on": "S. cerevisiae ΔOLE1", "test": "ΔOLE1 growth complementation assay without UFA", "type": "cell-based, Saccharomyces cerevisiae", "description": "S. cerevisiae ΔOLE1 (MATA OLE1::LEU2 ura3-52 his4) was used as an expression host. A synthetic expression cassette termed pOLE1 (FIG. 10, SEQ ID NO: 4) which comprises the OLE1 promoter region (SEQ ID NOs: 5 and 6), nucleotides encoding for 27 N-terminal amino acids of the OLE1 leader sequence (SEQ ID NO: 7), and a VPS13 terminator sequence (SEQ ID NO: 8) was created, and cloned into pESC-URA vector in between SacI and EcoRI sites. To test the functionality of the pOLE1 cassette, Dasher GFP synthon was inserted in between SpeI and NotI sites to create pOLE1-GFP plasmid. Competent ΔOLE1 was transformed with pOLE1-GFP, and plated on CM-Ura glucose agar plate (Teknova) containing UFA (20 mm CM-URA glucose agar plate was coated with 100 μL CM-Ura glucose medium containing 1% tergitol, and 3 μL palmitoleic acid). […] Validation of ΔOLE1 complementation was performed by restoring OLE1 activity. Specifically, native S. cerevisiae OLE1 synthon was inserted into pOLE1 cassette devoid of the leader sequence to create pOLE1-OLE1 plasmid. After transformation of ΔOLE1, and selection on CM-Ura glucose agar containing UFA, single colonies were patched onto YPD and CM-Ura glucose without UFA. After incubation at 30° C. for 5 days, growth was observed (FIG. 11A-FIG. 11E). As expected, Dasher GFP expression could not complement ΔOLE1 growth without UFA (FIG. 11A-FIG. 11E). DNA sequences which encode for desaturase variants were synthesized (to include nucleotide changes which remove restriction sites used for cloning purposes), and cloned into pOLE1 using SpeI-NotI sites (Genscript, SEQ ID NOs: 9-13). Complementation assay of ΔOLE1 with insect desaturases were performed in the same way as with OLE1 desaturase."}, "palmitic acid [1]": {"tested_on": "palmitic acid", "test": "in vivo bioconversion of palmitic acid into Z11-hexadecenoic acid in Y. lipolytica SPV140 and SPV300", "type": "cell-based, Yarrowia lipolytica", "settings": "from ~500 mg/L palmitic acid substrate, 24 well plate assay", "method": "Functional activity was assessed by a modification of the protocol used for transmembrane desaturase expression in C. viswanathii SPV053 (See Example 6). Briefly, Y. lipolytica SPV140 and SPV300 derived stains expressing insect desaturases were cultured in rich (YPD) to generate biomass. Using the YPD generated biomass, small scale (2 ml) cultures were cultivated with palmitic acid for a total of 48 hours in 24 deep well plates (See Materials & Methods for detail).\nPositive isolates were re-patched onto YPD, grown overnight, and then stored at 4° C. Strains were inoculated from patch plates into 2 ml of YPD in 24 deep well plates (square well, pyramid bottom). Three positive clones were inoculated for each desaturase variant. Three isolates of pPV101 in SPV140 and the parent SPV300 were used as negative controls. Deep well plates were incubated at 28° C. and 250 rpm in the Infors Multitron refrigerated flask shaker for 24 hrs. […] Final cell densities were measured with the Tecan Infinite 200pro plate reader. […]\nTotal lipid composition as well as the (Z)-11-hexadecenoic acid quantification was based on modified procedures by Moss et al. (1982) and Yousuf et al (2010). […] For the analysis of lipids and the quantification of fatty acids 50 μL of 0.2 M TMSH (trimethylsulfonium hydroxide in methanol) was added and the sample analyzed by GC-FID."}, "palmitic acid [2]": {"tested_on": "palmitic acid", "test": "in vivo bioconversion assay of desaturases in C. tropicalis SPV053", "type": "cell-based, Candida tropicalis", "method": "Functional expression of the heterologous desaturases was characterized by a series of in vivo bioconversion experiments. C. tropicalis SPV053 derived stains expressing insect desaturases were cultured in rich (YPD) or defined (CM glucose) media supplemented with ethanol (for induction) and saturated acid substrates (palmitic acid, methyl palmitate, methyl myristate). Small scale (2 ml) cultures were cultivated for a total of 72 hours in 24 deep well plates with substrate added after the initial 24 hours.\nPositive isolates were re-patched onto YPD+300 μg/ml Zeocin and grown overnight and then stored at 4° C. Strains were inoculated from patch plates into 2 ml of YPD in 24 deep well plates (square well, pyramid bottom). Three positive clones were inoculated for each desaturase variant and the mCherry expressing control strain. Deep well plates were incubated at 30° C., 1000 rpm, and 80% humidity in the Infors HT Multitron Pro plate shaker for 24 hrs. After 24 hrs of incubation, cultures were split into equal 1 ml volumes to make two sets of identical plates. Both sets of plates were pelleted by centrifugation at 500×g. One set of plates was resuspended in 2 ml of YPD+0.3% (v/v) ethanol and the second set was resuspended in 2 ml of CM glucose+0.3% ethanol. Ethanol was added at this stage to induce recombinant enzyme expression from the ICL promoter. Cultures were incubated for another 24 hours under the same conditions before 300 mg/L palmitic acid was added to cultures from a 90 g/L stock solution in ethanol. The result was the addition of a fresh 0.3% ethanol in conjunction with the palmitic acid. A subset of strains was also cultured without palmitic acid addition. These cultures had 0.3% ethanol added instead. All cultures were incubated for an additional 24 hrs before a final addition of 0.3% ethanol. After another 24 hr period of incubation, 1.5 ml of each culture was harvested in 1.7 ml microcentrifuge tubes and pelleted. Supernatant was saved in fresh tubes and pellets were processed as described below. A subset of supernatant samples was also extracted to look for free acid in the extracellular medium.\nThe mCherry control and confirmed positive variants were rescreened using both palmitic acid and methyl palmitate as substrates. The culturing was conducted as described above with equimolar (1.17 mM) amounts of substrate added from ethanol stock solutions (methyl palmitate 94 g/L stock, 313 mg/L final concentration). The same protocol was also repeated with the full panel of strains using an 84 g/L stock of methyl myristate (C14:0). The final concentration of substrate was again 1.17 mM.\nThe in vivo bioconversion assay was scaled up for confirmation of (Z)-11-hexadecenoic acid synthesis. 2 ml YPD seed cultures of strains SPV0302, SPV0303, and SPV0304 (mCherry), […], SPV0305, and SPV0306 (A. transitella Z11 desaturase), and SPV0307, SPV0308, and SPV0309 (H. zea Z11 desaturase) were grown overnight at 30° C., 1000 rpm, 80% humidity in the Infors HT Multitron plate shaker. 200 μl of overnight culture from each of the three clonal isolates was pooled and inoculated into a single 125 ml baffled flask containing 20 ml YPD. The resulting three flasks were grown for 24 hrs at 30° C. and 250 rpm (Infors Flask shaker). Cultures were pelleted by centrifugation at 500×g and resuspended in 20 ml of YPD+0.3% (v/v) ethanol and returned to 125 ml baffled shake flasks. Cultures were incubated for an additional 24 hours before addition of 300 mg/L palmitic acid in a 90 g/L stock in ethanol (221 μl per flask). After 24 hours of incubation another 0.3% (v/v) ethanol (221 μl) was added to each flask for sustained induction. Flasks were incubated for an additional 24 hours before cells were harvested for FAME analysis and DMDS derivatization.\nTotal lipid composition as well as the (Z)-11-hexadecenoic acid quantification was based on modified procedures by Moss et al. (1982) and Yousuf et al (2010). […]"}, "[3]": {"settings": "SPV053, supplementation not stated"}, "[4]": {"settings": "SPV053, with palmitic acid supplementation"}}}
{"molecule": "H. zea desaturase: Helicoverpa zea Z11 desaturase (AAF81787), SEQ ID NO: 54 (protein, listed as Helicoverpa zea) MAQSYQSTTVLSEEKELTLQHLVPQASPRKYQIVYPNLITFGYWHIAGLYGLYLCFTSAKWATILFSYILFVLAEIGITAGAHRLWAHKTYKAKLPLEILLMVFNSIAFQNSAIDWVRDHRLHHKYSDTDADPHNASRGFFYSHVGWLLVRKHPEVKKRGKELNMSDIYNNPVLRFQKKYAIPFIGAVCFALPTMIPVYFWGETWSNAWHITMLRYIMNLNVTFLVNSAAHIWGNKPYDAKILPAQNVAVSVATGGEGFHNYHHVFPWDYRAAELGNNSLNLTTKFIDLFAAIGWAYDLKTVSEDMIKQRIKRTGDGTDLWGHEQNCDEVWDVKDKSS", "values": [{"measurement": "rescue of ΔOLE1 growth without UFA", "setting": "S. cerevisiae ΔOLE1; minimal medium (CM-Ura glucose) agar plate", "value": "conferred growth without UFA"}, {"measurement": "rescue of ΔOLE1 growth without UFA", "setting": "S. cerevisiae ΔOLE1; rich medium (YPD) agar plate", "value": "conferred growth without UFA"}, {"measurement": "Z11-hexadecenoic acid production", "setting": "palmitic acid [1]", "value": "~100", "unit": "mg/L"}, {"measurement": "(Z)-11-hexadecenoic acid titer", "setting": "palmitic acid [2]; SPV053", "value": "~5.96", "unit": "mg/L"}, {"measurement": "activity on myristoyl-CoA", "setting": "palmitic acid [2]; SPV053, methyl myristate substrate", "value": "some activity on myristoyl-CoA"}, {"measurement": "(Z)-11/(Z)-9 hexadecenoic acid ratio", "setting": "palmitic acid [2]; SPV053, palmitic acid supplemented", "value": 1.4}, {"measurement": "(Z)-9-hexadecenoic acid in C16-fatty acid composition", "setting": "palmitic acid [2]; [3]", "value": "~30.91", "unit": "%"}, {"measurement": "(Z)-11-hexadecenoic acid in C16-fatty acid composition", "setting": "palmitic acid [2]; [3]", "value": "~19.1", "unit": "%"}, {"measurement": "hexadecanoic acid in C16-fatty acid composition", "setting": "palmitic acid [2]; [3]", "value": "approximately 50.0%"}, {"measurement": "(Z)-9-hexadecenoic acid in C16-fatty acid composition", "setting": "palmitic acid [2]; [4]", "value": 17.5, "unit": "%"}, {"measurement": "(Z)-11-hexadecenoic acid in C16-fatty acid composition", "setting": "palmitic acid [2]; [4]", "value": 24.4, "unit": "%"}, {"measurement": "hexadecanoic acid in C16-fatty acid composition", "setting": "palmitic acid [2]; [4]", "value": 58.1, "unit": "%"}, {"measurement": "(Z)-11/(Z)-9 hexadecenoic acid ratio", "setting": "palmitic acid [2]; SPV053, without palmitic acid supplementation", "value": 0.6}]}
